{"source": "patent US6040149A", "about": "“Assay for identifying agents which act on the ceramide-activated protein kinase, kinase suppressor of ras, and methods of using said agents” (priority 1997, dated 2000)", "key": {"[1]": {"system": "ceramide-activated protein kinase", "test": "EGFR peptide phosphorylation in a cell-free system (HL-60 nuclei-free supernate)", "format": "biochemical, human (HL-60 cells)", "description": "Effect of TNF-α on ceramide-activated protein kinase activity. HL-60 cells were incubated in serum-free medium and homogenized (as in FIG. 9). […] ATP (750 μM, 4000 dpm pmol^-1), and 75 μl of reaction buffer. […] Phosphorylated peptide was first run on a C18 Sep-Pak cartridge, then resolved by C18 reverse-phase HPLC (Waters, Milford, Mass.), with a linear gradient of acetonitrile. The peptide eluted at 30% acetonitrile, as determined by monitoring Cerenkov radiation in 1-ml fractions. Background activity was subtracted from each point. (A) Kinetics of TNF-α (30 nM)-stimulated EGFR peptide phosphorylation. Values (mean) represent data from four experiments. (B) Concentration dependence of EGFR peptide phosphorylation at 5 minutes of stimulation with TNF-α (0.01 to 30 nM). Values (mean) represent data derived from duplicate points in two experiments. The SEM of the values in (A) was 18% and the mean range of values in (B) was 3%.\nEffect of phospholipases on ceramide-activated protein kinase activity. Nuclei-free supernates, prepared as in FIG. 9, were first incubated with TNF-α (3 nM) or added directly to reaction mixtures that contained various phospholipases; sphingomyelinase (SMase) (1×10^-3 U ml^-1, S. aureus), phospholipase A2 (PlA2) (3.8×10^-2 and 3.8×10^-1 U ml^-1, Vipera ruselli), phospholipase C (PLC) (3.8×10^-2 U ml^-1, Bacillus cereus) and phospholipase D (PLD) (3.8×10^-2 U ml^-1, Streptomyces chromocuscus). Peptide phosphorylation was measured as in FIG. 10. Control value represents peptide phosphorylation in the absence of phospholipases or TNF-α. Values (mean±SEM) represent data derived from duplicate samples in three experiments. *P<0.001 compared to control.\nThe effect of TNF-α on ceramide-activated protein kinase activity was assessed. […] For studies assessing the effect of TNFα in broken cell preparations, nuclei-free supernates were incubated under conditions sufficient for stimulation of neutral sphingomyelinase in a reaction mixture that also contained EGFR peptide and γ-^32 P-labeled ATP. Phosphorylated peptide was resolved by high-performance liquid chromatograph (HPLC) and quantified by Cerenkov counting. Kinase activity was calculated from the specific activity of [γ-^32 P] ATP and incorporation of ^32 P into EGFR peptide. Background activity was subtracted from each point. […] TNF-α stimulation of kinase activity was evident by 1 minute and demonstrable for at least 10 minutes. If the initial incubation with TNF-α at 4° C. was omitted and TNF was added directly to the reaction mixture at 22° C., the reaction was delayed. […] TNF-α enhanced kinase activity in a concentration-dependent manner at 5 minutes (FIG. 10B). […] This is similar to the ED50 of 200 pM for stimulation of ceramide-activated protein kinase by TNF-α in intact cells. TNF-α enhanced kinase activity in a total of 20 separate studies.\nControl activity reflects several TNF-α-independent protein kinases that are known to phosphorylate EGFR peptide on Thr^669."}, "Raf-1": {"system": "Raf-1", "test": "Raf-1 phosphorylation in vitro by renatured CAP kinase", "format": "biochemical, human (recombinant Raf-1)", "settings": "CAP kinase from TNF-stimulated HL-60 cells", "description": "The data represent one of five similar experiments.\nThe data represent one of four similar experiments.\nThe data represent one of three similar experiments.\nCAP kinase was the only kinase to renature from HL-60 cell membranes and that this activity was exclusively membrane-bound, since no 100-110 kDa activity could be renatured from cytosolic fractions. […] Conditions for CAP kinase activity were optimized previously using myelin basic protein (MBP) or a peptide derived from the amino acid sequence surrounding Thr669 of the epidermal growth factor receptor as substrates.\nFIG. 17A--HL-60 cells were incubated in serum-free RPMI [RPMI containing 16 mg/ml serine, 8.4 mg/ml asparagine, 16.7 mg/ml glutamine, 25 mM HEPES, pH 7.4 and 0.5 mg/ml each of insulin and transferrin] at 1×106 ml^-1 for 2 hr, followed by stimulation with TNF (1 nM) for 20 min. […] Centrifugation for 5 min at 700×g yielded a post-nuclear supernate from which microsomal membranes were prepared by centrifugation at 250,000×g for 30 min. Microsomal membranes were resuspended into homogenizing buffer and proteins (30×10^6 cell equivalents/lane)were resolved on a 7.5% SDS-polyacrylamide gel. CAP kinase was renatured as described by Liu et al.. […]"}, "KSR/Raf-1 complex": {"system": "KSR/Raf-1 complex", "test": "Co-immunoprecipitation of KSR and Raf-1 from treated COS-7 cells", "format": "cell-based, mouse KSR (COS-7 cells)", "settings": "TNFα", "description": "FIG. […] Cells were lysed with NP-40 buffer and subjected to 4 hr of immunoprecipitation with anti-Raf-1 antibody. Two controls, KSR and KSR with ceramide treatment, received protein A conjugated sepharose beads without anti-Raf-1 antibody. […] Data represent one of four similar experiments.\nCell lysates were subjected to immunoprecipitation with anti-Flag antibody. Immunoprecipitated samples were handled as in FIG. 24A except Western blot analysis was performed with anti-Raf-1 antibody. Data represent one of three similar experiments.\nAnti-Raf-1 antibody conjugated beads were prepared by overnight incubation of 2 μl of anti-Raf-1 antibody (a kind gift of Dr. Debbie Morrison) with 5 mg of the protein A conjugated sepharose beads, followed by washing three times with NP-40 lysis buffer. […] Lysates (0.8 mg total protein) were then incubated for 4 hrs with anti-Raf-1 bound sepharose beads or anti-Flag conjugated agarose beads. The beads were washed vigorously 5 times, boiled in Laemmli sample buffer, and proteins were separated on 7.5% SDS-PAGE. After electrophoresis, the gel was transferred to PVDF membrane and probed with anti-Flag antibody or anti-Raf-1 antibody."}}, "data": [{"substance": "TNF-α", "values": [{"measurement": "concentration of maximal effect (kinase activity)", "setting": "[1]; 5 minutes", "value": 3, "unit": "nM"}, {"measurement": "effective concentration (kinase activity)", "setting": "[1]; 5 minutes", "value": 10, "unit": "pM"}, {"measurement": "ED50 for kinase activity", "setting": "[1]; 5 minutes, cell-free", "value": "≈ 300 pM"}, {"measurement": "onset of stimulation of kinase activity", "setting": "[1]; TNF-α 30 nM, P<0.001", "value": "≤ 1", "unit": "min"}, {"measurement": "enhancement of Raf-1 phosphorylation", "setting": "Raf-1", "value": "4-5 fold"}, {"measurement": "KSR complex formation with Raf-1", "setting": "KSR/Raf-1 complex", "value": "induced KSR to complex with Raf-1"}]}]}
